Test results reported in PMC12331947, “Activation of AKT via a dual mechanism enhances the susceptibility of melanoma cells to glucose deprivation” (Cell Death & Disease, 2025).
Values belong to the molecule of their own block, whether it stands above or below them.

How the values were obtained:
[1] = molecular target: PDK1^9CS with Cys23 rescued (human) (UniProt O15530); assay: non-reducing gel and immunoblot; A375 cells in glucose-free medium for 3 h, with or without NAC (5 mM) or GSH (2.5 mM); PDK1 monomer and dimer bands under non-reducing conditions
[2] = molecular target: T1, spleen tyrosine kinase (SYK) (Homo sapiens, UniProt P43405); assay: microscale thermophoresis (MST) with GFP-fused SYK in cell lysate; supported by in vitro kinase activation of bacterially expressed SYK; assay type: binding; design: full-length SYK-EmerGFP (HEK293T lysate)
[3] = molecular target: T1, spleen tyrosine kinase (SYK); assay: microscale thermophoresis (MST) with GFP-fused SYK in cell lysate; assay type: binding; design: SYK-EmerGFP (HEK293T lysate)
[4] = molecular target: T1, spleen tyrosine kinase (SYK); assay: microscale thermophoresis (MST) with GFP-fused SYK in cell lysate; supported by in vitro kinase activation of bacterially expressed SYK; assay type: binding; design: full-length SYK-EmerGFP (HEK293T lysate); remark: listed apart in the source
[5] = molecular target: PDK1^9CS with Cys21 rescued (human) (UniProt O15530); assay: non-reducing gel and immunoblot; A375 cells in glucose-free medium for 3 h, with or without NAC (5 mM) or GSH (2.5 mM); PDK1 monomer and dimer bands under non-reducing conditions
[6] = molecular target: T2, endogenous PDK1 (human (endogenous in A375)), O15530; assay: as above; settings: remark: other sources report otherwise
T2 chain: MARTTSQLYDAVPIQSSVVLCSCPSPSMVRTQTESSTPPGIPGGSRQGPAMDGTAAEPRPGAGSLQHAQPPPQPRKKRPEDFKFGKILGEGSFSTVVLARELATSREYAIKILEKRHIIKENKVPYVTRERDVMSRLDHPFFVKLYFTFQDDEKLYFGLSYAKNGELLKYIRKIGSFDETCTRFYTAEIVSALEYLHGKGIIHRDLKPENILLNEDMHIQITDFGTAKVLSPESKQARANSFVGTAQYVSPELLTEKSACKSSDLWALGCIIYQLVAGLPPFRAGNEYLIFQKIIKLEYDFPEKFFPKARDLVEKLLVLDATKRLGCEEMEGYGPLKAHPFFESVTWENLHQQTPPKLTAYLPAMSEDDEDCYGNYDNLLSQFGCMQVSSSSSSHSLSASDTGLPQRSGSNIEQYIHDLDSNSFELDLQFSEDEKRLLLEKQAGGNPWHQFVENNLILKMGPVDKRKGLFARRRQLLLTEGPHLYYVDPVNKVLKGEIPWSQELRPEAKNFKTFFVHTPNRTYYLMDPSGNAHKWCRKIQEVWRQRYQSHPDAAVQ

[7] = molecular target: T3, PDK1 (exogenous, HA- or Flag-tagged) (human), O15530; assay: as above; settings: remark: other sources report otherwise
T3 chain: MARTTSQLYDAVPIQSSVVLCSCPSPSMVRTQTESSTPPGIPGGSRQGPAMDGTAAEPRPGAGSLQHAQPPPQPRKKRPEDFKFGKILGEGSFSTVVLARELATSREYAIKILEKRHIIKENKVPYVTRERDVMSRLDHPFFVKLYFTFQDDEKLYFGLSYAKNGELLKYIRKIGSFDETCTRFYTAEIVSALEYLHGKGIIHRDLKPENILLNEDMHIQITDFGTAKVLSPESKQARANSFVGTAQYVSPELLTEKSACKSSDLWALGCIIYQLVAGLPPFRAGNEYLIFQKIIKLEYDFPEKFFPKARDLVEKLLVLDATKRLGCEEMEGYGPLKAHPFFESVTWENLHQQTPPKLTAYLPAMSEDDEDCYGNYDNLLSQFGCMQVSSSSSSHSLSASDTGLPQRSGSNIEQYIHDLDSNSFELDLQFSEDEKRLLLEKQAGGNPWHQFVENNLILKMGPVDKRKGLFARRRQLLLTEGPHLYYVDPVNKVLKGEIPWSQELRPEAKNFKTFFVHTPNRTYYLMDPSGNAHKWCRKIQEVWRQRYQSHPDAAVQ

Molecule: PDK1^9CS with Cys23 rescued (from UniProt O15530 1-556) (enzyme)
- stoichiometry N [1]: 2

Molecule: NC(=O)c1ccc[n+]([C@@H]2O[C@H](COP(=O)([O-])OP(=O)(O)OC[C@H]3O[C@@H](n4cnc5c(N)ncnc54)[C@H](OP(=O)(O)O)[C@@H]3O)[C@@H](O)[C@H]2O)c1 [NADP^+]
- Kd [2]: 69.1 ± 16.1 µM

Molecule: Nc1ncnc2c1ncn2[C@@H]1O[C@H](COP(=O)(O)OP(=O)(O)O)[C@@H](O)[C@H]1O [ADP]
- Kd [4]: 42.4 ± 19.1 µM

Now from value to molecule:

- Kd [3]: 232 ± 16.5 µM
Molecule: NC(=O)C1=CN([C@@H]2O[C@H](COP(=O)(O)OP(=O)(O)OC[C@H]3O[C@@H](n4cnc5c(N)ncnc54)[C@H](OP(=O)(O)O)[C@@H]3O)[C@@H](O)[C@H]2O)C=CC1 [NADPH]

- stoichiometry N [5]: 2
Molecule: PDK1^9CS with Cys21 rescued (from UniProt O15530 1-556) (enzyme)

- stoichiometry N [6]: 2
B1: endogenous PDK1, O15530 1-556 (enzyme)
chain: MARTTSQLYDAVPIQSSVVLCSCPSPSMVRTQTESSTPPGIPGGSRQGPAMDGTAAEPRPGAGSLQHAQPPPQPRKKRPEDFKFGKILGEGSFSTVVLARELATSREYAIKILEKRHIIKENKVPYVTRERDVMSRLDHPFFVKLYFTFQDDEKLYFGLSYAKNGELLKYIRKIGSFDETCTRFYTAEIVSALEYLHGKGIIHRDLKPENILLNEDMHIQITDFGTAKVLSPESKQARANSFVGTAQYVSPELLTEKSACKSSDLWALGCIIYQLVAGLPPFRAGNEYLIFQKIIKLEYDFPEKFFPKARDLVEKLLVLDATKRLGCEEMEGYGPLKAHPFFESVTWENLHQQTPPKLTAYLPAMSEDDEDCYGNYDNLLSQFGCMQVSSSSSSHSLSASDTGLPQRSGSNIEQYIHDLDSNSFELDLQFSEDEKRLLLEKQAGGNPWHQFVENNLILKMGPVDKRKGLFARRRQLLLTEGPHLYYVDPVNKVLKGEIPWSQELRPEAKNFKTFFVHTPNRTYYLMDPSGNAHKWCRKIQEVWRQRYQSHPDAAVQ

- stoichiometry N [7]: 2
B2: PDK1 (exogenous, HA- or Flag-tagged), O15530 1-556 (enzyme)
chain: MARTTSQLYDAVPIQSSVVLCSCPSPSMVRTQTESSTPPGIPGGSRQGPAMDGTAAEPRPGAGSLQHAQPPPQPRKKRPEDFKFGKILGEGSFSTVVLARELATSREYAIKILEKRHIIKENKVPYVTRERDVMSRLDHPFFVKLYFTFQDDEKLYFGLSYAKNGELLKYIRKIGSFDETCTRFYTAEIVSALEYLHGKGIIHRDLKPENILLNEDMHIQITDFGTAKVLSPESKQARANSFVGTAQYVSPELLTEKSACKSSDLWALGCIIYQLVAGLPPFRAGNEYLIFQKIIKLEYDFPEKFFPKARDLVEKLLVLDATKRLGCEEMEGYGPLKAHPFFESVTWENLHQQTPPKLTAYLPAMSEDDEDCYGNYDNLLSQFGCMQVSSSSSSHSLSASDTGLPQRSGSNIEQYIHDLDSNSFELDLQFSEDEKRLLLEKQAGGNPWHQFVENNLILKMGPVDKRKGLFARRRQLLLTEGPHLYYVDPVNKVLKGEIPWSQELRPEAKNFKTFFVHTPNRTYYLMDPSGNAHKWCRKIQEVWRQRYQSHPDAAVQ
